From the supplement of paper PMC10567573

B1: SLC2A12 (parent)
chain: TRIMIGLTLVFFVQITGQPNILFY
B2: ZNF193 (parent)
chain: QKRYHCKECGKVFSQSAGLIQHQR

Variants of: B1
Assay: protein stability index of a GFP-peptide fusion (GPS, HEK-293T) (PSI 1-6); higher = more stable
Conditions: c terminus: a fixed tail appended
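Note: lentivirally expressed fusions sorted by FACS into six bins by GFP to DsRed ratio, PSI derived from sequencing read proportions per bin multiplied by bin number.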

Variant	protein stability index
R2G	3.53
R2N	3.48
R2T	2.27
R2M	4.67
R2W	3.62
R2A	3.31
I3R	2.86
I3G	2.12
I3F	2.81
I3A	2.59
I3N	2.12
V10P	2.51
V10D	1.78
V10N	3.65
V10M	3.53
V10G	3.27
V10T	3.36
V10K	3.44
V10R	2.5
V10E	3.41
Y24F	5.58
Y24M	4.11
Y24N	2.88
Y24R	3.44

Variant	protein stability index
Y24I	3.33
Y24C	3.19
Y24W	2.69
Y24P	3.53
Y24E	3.1
Y24G	2.83
Y24V	4.22
Y24Q	2.06
Y24S	2.89
Y24T	3.56
F23M	2.94
F23V	2.56
Q14R	2.38
Q14S	3.29
Q14H	2.02
Q14W	4.35
Q14K	3.25
Q14D	2.14
Q14N	3.37
Q14L	3.19
Q14E	2.11
F11N	2
F11Y	3.02
F11K	2.68

Variant	protein stability index
F11G	2.78
F11Q	3.49
M4P	2.72
M4L	2.64
M4Y	2.6
M4I	1.92
M4C	4.43
M4R	3.83
M4T	2.73
L9N	2.69
L9W	2.24
L9R	3.25
L9G	2.8
L9D	3.04
L9F	5.04
F12L	3.53
F12D	2.7
F12A	4.95
F12V	3.31
F12M	2.49
F12Y	3.14
F12P	4.16
F12S	3.48
G17T	2.58

Variant	protein stability index
G17R	3.35
G17P	3.68
G17Q	2.8
G17Y	3.48
G17N	3.03
T1W	3.23
T1M	1.44
T1K	2.57
T1Q	2.42
V13W	2.85
V13Y	3.14
V13M	3.17
V13R	2.87
V13G	3.16
V13L	2.69
V13H	3.1
V13N	3.86
L7P	2.96
L7R	2.42
L7V	2.5
L7D	2.9
L7K	1.8
L7H	3.31
L7W	2.84

Variant	protein stability index
L7Y	4.24
L7E	2.62
G6V	2.43
G6C	2.87
G6F	4.16
G6W	1.9
G6Q	2.82
G6I	1.06
I21Y	2.98
I21C	2.42
I21Q	2.1
I21S	4.17
I21V	2.5
I21R	2.73
T16W	2.42
T16A	2.63
T16H	3.42
T16E	2.95
Q18A	3.12
Q18K	3.22
Q18V	4.47
Q18Y	3.56
Q18C	2.86
Q18T	2.7

Variant	protein stability index
Q18R	3.77
Q18N	2.47
Q18D	2.16
T8L	3.33
T8S	2.71
T8G	2.77
T8Q	2.43
T8V	3.33
T8D	2.01
T8P	4.51
T8M	3.52
L22H	2.65
L22K	1.94
L22E	3.11
L22W	2.65
L22N	3.01
L22F	2.79
I5L	3.43
I5H	3.25
I5M	1.77
I5Y	2.65
I5F	3.16
I5G	3.23
I5D	3.91

Variant	protein stability index
I5K	3.18
I15Y	3.97
I15T	3.01
I15A	1.54
I15M	2.5
I15L	2.74
I15F	3.46
N20R	2.67
N20Q	2.61
N20I	2.48
N20K	4.43
N20C	3.04
N20E	2.12
P19S	2.39
P19L	3.42
P19I	3.15
P19T	3.21
P19V	3.9
P19M	2.83
P19Q	2.6
P19N	1.72

Variants of: B2
Assay: as above
Conditions: c terminus: a fixed tail appended

Variant	protein stability index
R24T	2.33
R24G	3.05
R24C	4.52
R24D	3.33
R24M	2.44
R24Q	2.48
R24E	3.53
R24I	1.96
R24Y	2.5
R24L	1.43
R24F	2
R24W	2.1
R24N	2
R24H	3.44
R24K	3.65
R24V	2.28
R24S	2.43
R24P	2.44
R24A	2.83
H22C	2.04
H22Q	2.1
H22L	1.75
H22V	1.33
H22K	2.14
H22G	1.41

Variant	protein stability index
H22D	2.1
H22I	1.73
H22P	1.64
H22R	1.62
H22Y	1.5
H22M	1.84
H22E	1.59
H22T	2.05
H22W	1.99
H22S	1.9
H22N	1.67
H22F	2.66
H22A	1.16
Q23D	2.29
Q23V	2.37
Q23I	2.57
Q23Y	2.4
Q23L	2.69
Q23S	2.54
Q23T	2.51
Q23E	2.55
Q23M	3.13
Q23G	2.07
Q23H	2.97
Q23A	2.5

Variant	protein stability index
Q23N	2.36
Q23W	1.97
Q23R	2.85
Q23F	2.05
Q23C	2.81
Q23P	1.74
Q23K	3.36
A17K	3.09
A17N	3.05
A17V	2.48
A17S	3.02
A17R	3.21
A17P	2.02
A17L	2.22
A17C	2.45
A17H	2.66
A17T	2.46
A17G	2.54
A17M	1.82
A17Y	1.94
A17Q	2.76
A17E	3.51
A17F	2.27
A17W	2.86
A17I	2.28

Variant	protein stability index
A17D	3.42
G18D	4.32
G18F	2.26
G18A	3.12
G18E	4.13
G18W	1.68
G18S	2.22
G18C	2.7
G18L	3.01
G18H	2.84
G18N	2.32
G18M	2.06
G18P	2.29
G18T	2.65
G18Y	2.31
G18V	2.09
G18K	2.8
G18R	2.86
G18Q	3.55
G18I	2.4
S16E	4.39
S16H	3.77
S16F	2.86
S16L	3.59
S16Q	3.88

Variant	protein stability index
S16W	2.99
S16P	3.44
S16V	2.62
S16I	2.98
S16M	3.72
S16Y	3.8
S16K	3.53
S16D	2.47
S16T	2.27
S16G	2.7
S16R	3.97
S16N	3.11
Q21K	2.6
Q21R	2.69
Q21G	2.67
Q21L	2.57
Q21V	2.37
Q21Y	2.21
Q21F	1.91
Q21P	2.08
Q21D	3.82
Q21E	3.7
Q21I	2.1
Q21S	2.47
Q21M	2.55

Variant	protein stability index
Q21W	2.44
Q21A	3.2
Q21N	3.02
Q21C	3.06
Q21T	2.61
Q21H	2.88
L19G	2.37
L19R	2.55
L19S	1.97
L19F	2.43
L19E	2.31
L19I	2.2
L19M	2.35
L19W	2.41
L19N	2.56
L19Y	2.42
L19T	1.94
L19C	3.12
L19K	2.34
L19H	2.58
L19A	2.45
L19D	2.35
L19P	2.54
L19V	2.12
L19Q	2.45

Variant	protein stability index
I20D	3.02
I20Q	2.83
I20S	2.69
I20L	3.08
I20V	3.22
I20W	2.4
I20M	2.86
I20F	2.45
I20N	2.5
I20Y	2.98
I20G	2.38
I20T	3.09
I20H	3.31
I20A	3.06
I20P	2.27
I20R	3.5
I20K	3.26
I20E	2.91
I20C	3.95
